Measurements published in the domain aggregation screens of Martell et al. (2025).

Experiment: soluble fraction after stress (log2 fold change); higher = more stays soluble; pooled small domains, quantitative proteomics
Conditions: stress: 50 degC
How it was run: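 Pooled custom libraries of small protein domains were measured in a high-throughput format, with quantitative proteomics as the read-out. Each library was stressed at 50°C. Aggregation propensity is given as the base-two logarithm of the fold change in how much of each protein stays soluble after the stress. Higher values mean a larger share of the protein remains in solution.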

Row | Sequence | soluble fraction (log2)
1 | HMEEFIEHTVEKGEFLSAIIVAYNQHLKSKGFKSITTRDILNANPKLKPELIQVGQKIKIPRRKK | 0.29
2 | HMALSTRERMSFVLEVLKEKEFIPFVDLFSPEEGRAGVVVTFLALMELMKDSLIEIVQTKNFGEIHVRARL | -0.218
3 | HMVLENLKKFIDSKGISVSAFEKSIGMSNNSFRKSLNSGGHIGSDKLENILKIYPELNPVWLLQGEGEML | -0.27
4 | HMKILVTDDNIRIDKYLTTQTEYSRSTIQKMIESNNILVNNKPTKSNYILRNNDEITIDENFNEE | -0.11
5 | HMSLSPAATRSRGYPSVLLTMKAPERLVSAAGPDRRAYLVGTDPLVIELPGVKGLYKVDPDQIVFE | 0.0566
6 | HMTQNSAITNRVLYMQRTLRQYGYAVPESGNFDRTTRAHAAEFLYNATGLPVRENQSVQEFYRAFQRVQG | -0.981
7 | HMQNSMTTTPDVVGKTGTFAEQMLKAANLNVQFAGDSSGKVVAQDVEAGTSAAYGTIITLTMDS | 0.14
8 | HMTKASYKITTPSGVNVREGAGKRYAVRKAYPKGKTVTVTQTKEVNGNLWGKTSDGWFAIKYQGAVYASA | -0.97
9 | HMYSLSELERIKNFLTGYMSDYSIMMLDANEITNQVDISLKDYSDDNIESIKAAVLSHGGKTDYLNFIDDS | -0.589
10 | HMVNDQSIYASEGYVHIRSGKPVSLRIYTILGALYRHEERLVGDHVIALPRGLYIVVLNHTAKKIMV | -1.01
11 | HMVQDDLRELEGISTELLAKLADAGITNRDDLADLAIDELVAITGQSEDDAKALIMKAREHWFAGDA | -0.0273
12 | HMSDIPEGYMSRVQLGDEWGIHLATFDKAVIAVKEKLGTVVFIDKSNNTTAGYSPEQQTIIYDWLAEN | -1.82
13 | HMNEIALETAIEDVESFIQMQNRNLAFSIDEDTDRAVVTVRDSDSGDVIRQIPSEEVLALAERIQDLQQD | 0.136
14 | HMLPDHAPITMRQLAMLHVAKNKLDLTDEDYRSLLLLYGGVESSKQLNQEGLRRVLDRFKELGFEP | -0.0947
15 | HMEETEVPPVTGYEQSKASEVLTGKGLIPDIITVADEETAAGYVIRTDPASGEKVPSGTTVKVYVSSGP | 0.159
16 | HMDEDLQEALRKLNPIQANERKLLLKMLEQHRWNVSSVAKAFDVSRNTLYRRLHKLHIPLSNPSE | -0.417
17 | HMIDQIAEQLQQRLAVDTAFATIQRDYPDVIANKDIELLTAIKVNQKIAEGASRASAMLESAKEVYETL | -0.0203
18 | HMKKASLSTVEKKLMKQNYSNDTMENRLARVESYMFGTVFSSDDTQTRIDRISSAYNAQKSS | 0.142
19 | HMGNHMSFKMWGEQLQEAFRALETYDTQKAKTILNELVRFPIDSDITKALKGIISNIDDMMA | -0.535
20 | HMDSKYLRIFSTLIDEMEKMSPGEQLQSERELSQRFQVSPMTVRRALHKLSTEGYTSAIPGKGTFVRK | -0.307
21 | HMNPTSLTFRSNVKDGKVYVDGIFKGSSDLDFDLPKGRHSIRIEKDGYVPFAKTINLIKALVIDFNMEKA | -1.83
22 | HMQLSMLPYGFARRHGVLLVEQDEQPTLIHRAGITATVIAEVQRVAGQIDAWRLVDDARFDQQLAEVYRD | -1.06
23 | HMSGDYRPLYPNLPESEKSEAFNLLAGSALPARLDDRTGDIMVPADRYYEARMILANAGFAD | 0.0141
24 | HMNMAEETLDTAAKILKAAEEEFMEKGYGNAKMMSIAARAGVSHSMLHYYYRSKGKLFQMIFDEKA | -1.4
25 | HMPSLAVYPNPVKDILNIATDKPVHSIRIYNVYGSEVLRAADTNRIDVSHLPAGVYMVSADGKVTRIIK | -0.462
26 | HMTLRDRDQALEELWGQLADVPMDSETERLLEPFMGWGVGVSRDEIWHWFDRRHSKGIGHLLYS | -1.55

Row | Sequence | soluble fraction (log2)
27 | HMKTLNKRQQDIINLAREEGFVTVEHLSEYFKVTQQTIRRDLGYLSENLYLARTYGGAFFQS | -0.872
28 | HMGVAAEDPDEAEKGAHSLKSSAANVGAEVVRGLAGEIESAASSGDVEAVRTILPGLEDAYSQAITDLET | 0.0162
29 | HMKKYLTETEAAAYLNMPVEEIKAAITKGEIEQYVKTSSGYTISVEELDKFFGQKAYDTMTSNNS | 0.174
30 | HMVAFYATPKERGIYDDAETYREGDIVSIADGSRWIYVNPTATAGNDPADGSVYWERMSGAATGP | 0.0147
31 | HMPQPEIEIAAVVPYSAGALLSRIHDDGELLAPVEYRGEGVFVHARVPADIEAAMRRGGMLSPAET | 0.0913
32 | HMEQVLNVAVRRGELIMSSAAEQTVRIYSSAGSMVWQGKVSASDVTVELPSGVYVVNGKKVV | -1.19
33 | HMDMQMPIMNGLEFLERINLTLDDNFSIIVLTGKIEDKSIEKSFELGINAYLRKPFNIYALLGIVRQN | -0.0848
34 | HMDMSDFEVVRDMYLTGKVWNAGDIVEAKGITGEVVRKGTNYLSFVDKNGKVHKAWLHEIEL | -0.188
35 | HMPAVGGVVKGAVVSVGRNEVRLDIGGLAIGIIRGPELDKHVDLRIGDEVEATVITLDNEFGELELSL | -0.72
36 | HMSLYGGYEIDIIKEEVVDAGIKLLRRRVIVADQRGISVYEGKPTFASDDQVLIKEGQYQIDKLG | -2.63
37 | HMDYADISYKIFMNHIKNGQVERVELSGDPRIMGKLKDGTYFVTDNPRTENFKEFLLLNNVQVIETN | 0.43
38 | HMDSILSIVGGEESYKALLAWAENNISQQELQQLETILKSGNVPAIKRVLVTLMNRFNQAQS | -0.147
39 | HMASPEIAFLNKFYQLSNTVNEISVMKIVKNYQEKYQQRISIEQMAKTLKTMGYAVRNNIISNIEEAPV | -1.3
40 | HMTTVRLNATVPPELALQRLDRVARELFPEYSRNRLQQWIRSGELLVNGSPSGVRDKVPLGAELAVAANLE | -0.416
41 | HMLTLAVPNSINMRLDKYLSENIDYLSRSKIQGLINDGKVTINGENEKSSYKLNGDESIVIYYEE | -0.0746
42 | HMENKLIELTLSLDKSERLDKILTQELSHTRSVIQQWLKSGFVSVNGEIVKANYKAKDGDHVTIQIE | -0.198
43 | HMAQLVVTVDKLNKRTAIPVTLSDKSSNDSVVEKGFRFEGFPFVNTATNGKKWYKDREGFFYWAGGLMEEA | 0.0125
44 | HMATPSTGQVSVVRLNLRVSPSISSPVVTRLTQGDTVKILAASDDGRWYKVATADGRTGWLYTIYITAE | -0.37
45 | HMLKIVRSREEVESRLYTIYGNVKGRRLYNFYLSLIIDGLDIVKARTSKNVYYTNIRNLKNAGIDFSQKIN | -2.38
46 | HMEEYTVEFVKHKVKRKQTLYTISKLYNVSIDDIIKYNSQIEGFNLSRRMELNIPVKKTLIVKNE | -1.7
47 | HMGDPVRVDKFLHDMNVGTRSQIRKLIKEKAVFVNDVVAKSGRVKVDPVVDQVRLGEQVITYQ | -0.115
48 | HMAAEEAFPGGRIVQNAEENRLQILFDEIPGEDVRAALKSHGFRWSPKNKAWQRQLTQNAEYDARRILGI | -0.00473
49 | HMNINHEINIKSKKKISILENNPNLSQFYLTKNPDQYNYNLVFSDKSELNKLKEKLESDNEVEDIDIRYG | 0.06
50 | HMQVLLTRREKEILKLIAEGLTSAEIGKRLFISTTTVDTHRKHLLEKLKAGNTAILIKTAVQLDLI | -1.26
51 | HMYSSIIGIAFTRAENKPAAPTGGSYSNPHPVDGNWKAAPYDGDGNLWYSIRHFNENVDIQDREWSDPTLG | -0.24
52 | HMGAIVTVPDLAGRPQPGAEAELRRSGLVPKVRTSYSLTGTRGTVISQTPPAGSRVREGAEVEVVVSRGLN | 0.0922

Row | Sequence | soluble fraction (log2)
53 | HMNIDGLIGKKALVTADIDNVNSKGQIKINGLEWTARSVDDEPIPMGTEVEITAISGVKAIVRKG | 0.168
54 | HMEHPNNTELTQKLELGTELMQYGDYNYALKVFNNVIDSDPEWSEAWNKRATVYFLMSQFTDSLSDIDRV | 0.32
55 | HMANPRLEYFLSNITPDWNEFSPELKNQLLIENADPYKLEQYILQVSPDMYIEEQNAPGTVRQMAGDITG | 0.09
56 | HMRGETSYANDIIKRLKQANLIVVEGTLYPLLNRLKKDGLLHYEWRESQQGPPRKYYGLTEEGEA | -0.132
57 | HMTEVPSLSSLKIGDLIFYRNNKGAIAHSAIITSFYNGRPFISQHTFNALNITYVKDWASKMHFIKIW | -0.0353
58 | HMEETLRALAKKISEKVLKSGRSTTLEPMNPYERRIIHSAVSEIEGVSSKSVGEEPYRKVVISSDNP | 0.0364
59 | HMQLHDTMKRVYEALDISEQKLAESLGLKLSTIINWQKNGISKIGINKLNQTFGLDMQWILTGQGEPFI | 0.116
60 | HMGAPAISYSKFLEQVDRKNVASVTIYKDGRIDGVMTSGSRFATESPSDPGLVGDLLKAGVEIRAKPP | 0.126
61 | HMSEMVIPEDFLAALETNPQAKAFYATLNRQNQYAVYHRLQTAKRPETRAKRIADFVAQLAAGKRF | -0.355
62 | HMDAIIVPSVLKMKPFEAEEKLSALGLRMKINDTVYIDNMKPGVIVEQSPTAEEDVKTDRVIYVIVNA | -0.404
63 | HMLDEIAGQKVRVLEEINNSEGTGKVMYRGVEWMARSVDDAVMAKDSIVTVQSISGVKLMVT | -0.0685
64 | HMEAVLTISPGMYSESVSAELVRLGIITNQKEFNSYLVNNGYAERIQTGDFKIKADMSYDEIARIITK | 0.231
65 | HMDAMLSEQLREKRGELLIEVDAIAGNALRWATLSAEQQDAWAVYRQALLDVPQQAGFPNDVVWPINPN | -0.352
66 | HMYTTHTQSELNEAARFNGRATYQKGIYYNESKKEHFKVVNGKYQALPNVKQVNGDSWIDKTGITHKG | -0.171
67 | HMSDPVDDLLLRISQQAGVARGQLVAELNMLVQDRFGGNLRHEAAAVLMAKRYGIEFRDLLPALREHLVKN | -0.00206
68 | HMHPEETVNLILDAAFRLFLEKGYEHTSIQDIIGQLGGLSKGAIYHHFNSKEDILIAVTDRMTA | -1.81
69 | HMDQTIFFGQQKAINNLSTDAGLSATELDEYLKKRYKRPLYQLTQAEGAEIIKGFQDGALSRSSILDYTK | -0.00165
70 | HMAVKNAQIDVQQFFYSKSGEVDFGRKIKAIQSHFTPERLQSFTAAVPPSQWVSQLQVMWDSL | -1.39
71 | HMSDTVDITKLGIAGKTKEAAEALLKENGFSVESKEENSDTIEKGKVISYSPTKPKNGDRITLIVSSGKK | 0.0915
72 | HMSQDTLIENGKVFLIHKVVAGQTLYGLSKAYNITIEDIIKYNPQAENGIKIGEDIKIFLKEE | -0.432
73 | HMSTESAHLGERMLNQALRAMHIEPDQITEAHWQKLIRDYGLKKKSEILTDIGLGKRQNVMVAHQLLAMG | -0.106
74 | HMATPAFEMYKVRRGDTPAGLAKEWGFPDMASFYRINPDARSDWKRGLQLVKPMNEMAVLQATA | -0.255
75 | HMGVSLREVPVAEHGDWIGRPIKELGIPAEVLIVLVRRADGTTVVPKGGTVLQQGDMLVVNEWEE | -0.426
76 | HMAYRLDVRNQTKGTYLVIQKKYWDKEKKQSRTKHHMSLGYVHDLQKLYSDPITHYKEVINQMNAEEKG | -1.54
